Some results are limits rather than exact numbers.

The test system of data set [1] is LNA-modified ASOs and antibody-ASO conjugates. Description: SPR binding. Conditions: summary in words. As for the experimental part:
(§1) In more detail, LNA binding of the antibodies according to the current invention was characterized by surface plasmon resonance (SPR) using a BIAcore instrument with a HEPES-based running and dilution buffer at 25° C. About 100-200 resonance units (RU) of an anti-LNA antibody with an Fc-region of the human IgG1 subclass and the mutations P329G, L234A and L235A (according to Kabat EU index; human IgG Fc-PGLALA) or an anti-LNA Fab fragment with human CL and CH1 (kappa, IgG1 isotype), respectively, was captured on the surface of a Series S Sensor Chip CM3 derivatized by standard amine coupling with either a mouse anti-human IgG Fc-PGLALA antibody or a goat anti-human F(ab′2) antibody with final total surface densities of approximately 5000 RU. Different LNA-modified ASOs were passed over the derivatized SPR chip surface by injecting the respective solutions in a 1:3 dilution series up to a final concentration of 1000 nM. Association was monitored for 3 min and dissociation for 5 min at a flow rate of 30 μl/min each. Bulk refractive index differences were corrected by subtracting blank injections and by subtracting the response obtained from the reference flow cell without captured antibody. Curve fitting was performed using the 1:1 Langmuir binding model within the BIAcore evaluation software.
Further analyses of the pan anti-LNA antibody according to the invention produced by clone 1.9.21 a trivalent, bispecific format was used. This trivalent, bispecific format comprises an IgG1 Fc-region (with knobs-into-holes-cys1 mutations) to which at one of the N-termini of the Fc-region a germline Fab (DP47; SEQ ID NO: 137 and 138) has been fused and at both of the C-termini of the Fc-region each one anti-LNA Fab (fab 0699) according to the current invention produced by clone 1.9.21 has been fused (fusion 1861). […]
To assess the specificities and affinities of LNA-binding antibodies, surface plasmon resonance was done as described in WO 2020/141117 and WO 2022/175217. […] Association was monitored for 3 min. and dissociation for 5 min. at a flow rate of 30 μl/min each. […]

In data set [2] the test system is ASO 042. Description: SPR (BIAcore) binding kinetics and affinity. Conditions: analyte ASO 042, bivalent IgG format, 25° C. Here is the method: as §1
(§2) To assess the binding specificities and affinities of the LNA-binding antibodies according to the current invention, surface plasmon resonance was used as described, e.g., in WO 2020/141117 and WO 2022/175217.
(§3) To assess the specificities and affinities of LNA-binding antibodies, surface plasmon resonance was done as described in WO 2020/141117 and WO 2022/175217. ASO binding was investigated by surface plasmon resonance (SPR) using a BIAcore T200 instrument (Cytiva). As a running and dilution buffer, HEPES buffered saline (HBS) containing 0.05% PS20 was used, the temperature was set to 25° C. For capturing anti-LNA Fabs or complete anti-LNA antibodies to a Series S Sensor Chip CM3 (Cytiva), either a mouse anti-human IgG antibody (Roche Diagnostics GmbH) or a goat anti-human F(ab′2) antibody (Jackson ImmunoResearch) was immobilized using standard amine coupling chemistry with final total surface densities of approximately 5000 resonance units (RU). The anti-LNA antibodies were captured to the surface by an injection for 30 sec., leading to response levels of approx. 100-200 RU. Different ASO molecules were injected in a 1:3 dilution series up to 1000 nM. Association was monitored for 3 min. and dissociation for 5 min. at a flow rate of 30 μl/min each. Subsequently, the surface was regenerated by injecting 10 mM NaOH (anti-human IgG antibody surface) or 10 mM Glycine pH 1.7 (anti-human IgG F(ab′2) antibody surface) for 60 sec. Bulk refractive index differences were corrected by subtracting blank injections and by subtracting the response obtained from the reference flow cell without captured antibody. Curve fitting was performed using the 1:1 Langmuir binding model within the BIAcore evaluation software.
On the technique in general: In SPR one partner is held on a chip, and binding of the other changes the refractive index at the surface.

The subject of data set [3] is ASO 420. Description: SPR (BIAcore) binding kinetics and affinity. Conditions: analyte ASO 420, bivalent IgG format, 25° C.; for Kd: read-out: K. As for the experimental part: as §1, §2, §3
Data set [4] concerns ASO 827. Description: SPR (BIAcore) binding kinetics and affinity. Conditions: analyte ASO 827, bivalent IgG format, 25° C. As for the experimental part:
as §1, §2, §3

The test system of data set [5] is fusion 2489 (antibody-ASO 918 conjugate). Description: SPR (BIAcore) binding kinetics and affinity. Conditions: analyte fusion 2489, bivalent IgG format, 25° C. Here is the method:
as §1, §2, §3

The subject of data set [6] is fusion 2899 (antibody-ASO 918 conjugate). Description: SPR (BIAcore) binding kinetics and affinity. To be noted: analyte fusion 2899, bivalent IgG format, 25° C. Here is the method:
as §1, §2, §3

The test system of data set [7] is ASO 297. Description: SPR (BIAcore) binding kinetics and affinity. To be noted: analyte ASO 297, bivalent IgG format, 25° C. As for the experimental part:
as §1, §2, §3

B1: mAb 5391: anti-LNA antibody produced by clone 1.2.8 in the bivalent standard Y-shaped IgG format (antibody, V domains shown)
VH: QIQLRESGPGLVAPSQSLSITCTVSGFSLTNYGVHWVRQPPGKGLEWLGVIWAGGSTIYNSALMSRLSISRDNSKSQVFLEMNSLQTYDTAMYYCARDRPFDGFFFSYWGQGTALTVSS
VL: DVLMTQTPLSLPVSLGDQASISCRSSQAIVHRSGNTFLEWYLQKPGQSPKLLIYKVSNRFSGVPDRFSGSGSGTDFTLKINRVEAEDLGVYYCFQGSHVPYTFGSGTKLEIK
As for B1, the “binding to the tested analytes (ASOs and antibody-ASO conjugates)” value (from here on “binding to the tested analytes”) in data set [1] was “no to very low binding to all of the analytes tested”. In addition, the K result is “no binding” in data set [2]; “no binding” in data set [3]; “no binding” in data set [4]; “no/low binding” in data set [5]; “no/low binding” in data set [6]; “no binding” in data set [7].

B2: mAb 5393: anti-LNA antibody produced by clone 1.9.21 in the bivalent standard Y-shaped IgG format (antibody, V domains shown)
VH: QVQLQQSGAELVRPGTSVKVSCKASGYAFTNYLIEWIKQRPGQGLEWIGVINPGSGGTNYNEKFRVKATLTADKSSSTAYMQLSSLTSDDSAVYFCARGGGYYWGQGTLVTVSA
VL: DIVMTQAAPSVPVTPGESVSISCRSSKSLLHSNGNTYLFWFLQRPGQSPQVLIYRMSNLASGVPDRFSGSGSGTAFTLRISRVEAEDVGVYYCMQHLEYPYTFGSGTRLEIK
On to B2, for which the “binding to the tested analytes” value in data set [1] was “binds to all of the tested ASOs and antibody-ASO conjugates with good affinity”. In data set [2] (oos = out of specification), the Kon entry is reported as “oos”. Further, the Kd was less than 1 nM in data set [2] (read-out: K); 0.0379 nM in data set [3]; 0.0414 nM in data set [4] (read-out: K); 0.116 nM in data set [5] (read-out: K); 0.169 nM in data set [6] (read-out: K); 26.2 nM in data set [7] (read-out: K).

B3: mAb 5392: anti-LNA antibody produced by clone 1.7.15 in the bivalent standard Y-shaped IgG format (antibody, V domains shown)
VH: QVQLKQSGPSFVQPSQSLSITCTVSGFSLTTYGVHWVRQSPGKGLEWLGVIWRSGGTDYNAAFMSRLSITKDNSKSQVFFKMNSLQTDDTAIYYCTNLYYWGQGTTLTVSS
VL: DIVMTQATFSNPVTLGTSVSISCRSSKSLLRSNGITYLYWYLQKPGQSPQLLIYQMSNLASGVPDRFSSSGSGTDFTLRISRVEAEDVGVYYCGQNLELPYTFGSGTKVEIK
In the case of B3, in data set [1], the “binding to the tested analytes” value is “binds to some of the ASOs, while showing no or very low binding to other ASOs”. In addition, the K entry in data set [2] is “no binding”; in data set [4], “no binding”; in data set [5] it was “no/low binding”; in data set [6], “no/low binding”. For the same molecule, the Kd in data set [3] is 198 nM. The Koff entry in data set [7] (oos = out of specification) is given as “oos”.

The record behind these values is patent publication US20260201069A1, “ANTIBODIES THAT SPECIFICALLY BIND MODIFIED OLIGONUCLEOTIDES” (Hoffmann-La Roche Inc., priority 2024, published 2026).
